Test results from patent EP4663662A1 (Shanghai Qilu Pharmaceutical Research and Development …, dated 2025).
Changes are numbered by the printed parent chain. Where two headings read alike, the source gives them in different places.

How the values were obtained:
human BCMA [1] = biological target: T1, human BCMA (human, UniProt Q02223 1-184); assay: flow cytometry, human BCMA-CHOK1 cells
T1 construct: On transfected CHOK1 cells; also called Human BCMA-CHOK1 cell line; Human BCMA CHOK1
T1 sequence: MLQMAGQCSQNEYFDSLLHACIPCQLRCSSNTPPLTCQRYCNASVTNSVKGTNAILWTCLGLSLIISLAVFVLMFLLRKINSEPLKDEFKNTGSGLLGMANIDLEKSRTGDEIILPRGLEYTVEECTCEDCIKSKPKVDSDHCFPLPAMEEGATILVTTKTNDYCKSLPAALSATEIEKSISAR

cynomolgus monkey BCMA [2] = biological target: T2, cynomolgus monkey BCMA (cynomolgus monkey, UniProt Q02223 1-184 (human entry)); assay: flow cytometry, cynomolgus BCMA-CHOK1 cells
T2 construct: On transduced CHOK1 cells; also called cyno-BCMA; Cynomolgus monkey BCMA-CHOK1 cell line

human BCMA [3] = biological target: T1, human BCMA; assay: flow cytometry, human BCMA-CHOK1 cells; remark: listed apart in the source
cynomolgus monkey BCMA [4] = biological target: T2, cynomolgus monkey BCMA; assay: flow cytometry, cynomolgus BCMA-CHOK1 cells; remark: listed apart in the source
human BCMA [5] = biological target: T1, human BCMA; assay: flow cytometry, human BCMA-CHOK1 cells; remark: listed apart in the source
cynomolgus monkey BCMA [6] = biological target: T2, cynomolgus monkey BCMA; assay: flow cytometry, cynomolgus BCMA-CHOK1 cells; remark: listed apart in the source

T2 sequence (Q02223 other isoform, or with tags, fused parts or gaps): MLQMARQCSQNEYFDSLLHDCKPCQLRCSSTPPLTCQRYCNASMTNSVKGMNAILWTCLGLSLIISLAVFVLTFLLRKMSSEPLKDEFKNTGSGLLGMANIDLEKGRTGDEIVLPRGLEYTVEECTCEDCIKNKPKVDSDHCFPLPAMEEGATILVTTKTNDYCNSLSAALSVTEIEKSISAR

B1: 19CH-16H2L2 humanized anti-BCMA antibody (antibody, IgG1, V domains shown)
VH: QVQLVQSGAEVKKPGASVKVSCKASGFTFRSSYISWVRQAPGQGLEWIAWIYAGSGNTDYNQKFTGRVTMTVDTSTSTVYMELSSLRSEDTAVYYCARHYDPPHYFDYWGQGTLVTVSS
VL: DIQLTQSPSSLSASVGDRVTITCSASSGVSHMHWYQQKPGKAPKRWIYDTSKLTSGVPSRFSGSGSGTDFTLTISSLQPEDFATYYCQQWSRNPWTFGQGTKVEIK
Human BCMA [1]
  EC50: 2.13 nM
Cynomolgus monkey BCMA [2]
  EC50: 4.82 nM

B2: 19CH-16H2L2-NA humanized anti-BCMA antibody variant (antibody, IgG1, V domains shown)
VH: B1 VH with T58A
VL: B1 VL
Human BCMA [3]
  EC50: 2.15 nM
Cynomolgus monkey BCMA [4]
  EC50: 5.86 nM

B3: 19CH-16 anti-BCMA chimeric antibody derived from mouse hybridoma (antibody, IgG1, V domains shown)
VH: QGQMQQSGAELVKPGTSVKLSCKTSGFTFRSSYISWLQQKPGQSLEWIAWIYAGSGNTDYNQKFTGKAQLTVDTSSSTAYMQFSSLTTEDSAIYYCARHYDPPHYFDYWGQGTTLTVSS
VL: QIVLTQSPAIMSASPGEKVTMTCSASSGVSHMHWYQQKSGTSPKRWIYDTSKLTSGVPTRFSGTGSGTSYSLSISSMEAEDAATYYCQQWSRNPWTFGGGTKLEIK
Human BCMA [5]
  EC50: 0.885 nM
Cynomolgus monkey BCMA [6]
  EC50: 1.22 nM
